Assay results reported in publication PMC1310897.

Key:
Test in all cases: fluorescence polarization
[1] = molecular target: RecQ WT (Escherichia coli, UniProt P15043 1-609)
[2] = molecular target: RecQ W154L (Escherichia coli, UniProt P15043 1-609, W154L)
[3] = molecular target: RecQ R159L (Escherichia coli, UniProt P15043 1-609, R159L)
[4] = molecular target: RecQ F158L (Escherichia coli, UniProt P15043 1-609, F158L)

Measured: binding result

GCGTGGGTAATTGTGCTTCAATGGACTGAC (ssDNA) [oligo 1 ssDNA (30 nt)]
binds: all assays above
